Data on two molecules can be found in article PMC6404581, “Staphylococcus aureus toxin LukSF dissociates from its membrane receptor target to enable renewed ligand sequestration” (The FASEB Journal, 2018).

For assay [1], the target named is sortase-tagged FITC-labeled human C5a receptor, on HEK cells (human) (UniProt P21730). Put plainly: FRET or BRET; sensitized emission FRET, live sortase-tagged FITC-hC5aR cells (donor) with Cy3 mS* (acceptor), 1 h at +4°C, washed, before addition of mF. In general terms: BRET reads energy transfer from a luciferase to a nearby fluorophore.
sortase-tagged FITC-labeled human C5a receptor, on HEK cells (human), sequence (P21730 whole entry): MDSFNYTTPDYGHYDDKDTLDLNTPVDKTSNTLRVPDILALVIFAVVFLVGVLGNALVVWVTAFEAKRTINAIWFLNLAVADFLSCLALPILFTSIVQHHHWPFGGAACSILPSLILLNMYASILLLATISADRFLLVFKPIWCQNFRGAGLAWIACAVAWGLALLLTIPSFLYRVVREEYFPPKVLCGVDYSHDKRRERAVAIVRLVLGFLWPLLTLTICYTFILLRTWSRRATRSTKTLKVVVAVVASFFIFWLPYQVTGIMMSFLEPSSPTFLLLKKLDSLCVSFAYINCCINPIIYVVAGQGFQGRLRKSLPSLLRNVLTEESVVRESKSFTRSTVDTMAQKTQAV
For assay [2] the target is unchanged. Put plainly: FRET or BRET; sensitized emission FRET, fixed FITC-hC5aR cells with one Cy3-labeled toxin component alone (Cy3 mS* or only Cy3 mF*), 30 min at 4°C then 10 min at 37°C, washed, fixed, PBS.
The target in assay [3] is human C5a receptor, endogenous on human polymorphonuclear cells (human (endogenous in PMNs)) (UniProt P21730).
human C5a receptor, endogenous on human polymorphonuclear cells (human (endogenous in PMNs)), sequence (P21730 whole entry): as above
Assay [4] has as its target T1, wild-type Staphylococcus aureus leukocidin S (Staphylococcus aureus, UniProt O80066 29-312).
T1 construct: also called S(wt); LukS; source: E. coli Rosetta-gami 2 (DE3) pLysS, purified (nickel HisTrap, Superdex 75)
T1 sequence: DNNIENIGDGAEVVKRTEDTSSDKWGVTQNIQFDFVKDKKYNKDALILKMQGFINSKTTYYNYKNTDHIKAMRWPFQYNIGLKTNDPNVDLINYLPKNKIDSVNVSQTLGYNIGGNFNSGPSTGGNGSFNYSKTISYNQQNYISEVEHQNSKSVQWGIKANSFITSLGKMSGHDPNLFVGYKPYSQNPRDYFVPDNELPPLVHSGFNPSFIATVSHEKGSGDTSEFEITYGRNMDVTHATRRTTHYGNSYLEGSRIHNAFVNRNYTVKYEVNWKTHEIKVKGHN
Nature of the assay: flow cytometry on cells. The conditions noted are these: both partners purified. (In general: In flow cytometry, cells or beads pass a laser one at a time.)

With “maleimide-labeled LukS-K281C-Y113H (natural protein)”, the FRET efficiency in assay [1] turned out to be 75%; in assay [2] it was 60%. For the same molecule, the toxin concentration at which PMN permeabilization (DAPI uptake, flow cytometry, 30 min) reaches 100%; modified toxins in place of the wild-type ones in assay [3] came out at 3 nM.

B1: G130D leukocidin component F (natural protein, Staphylococcus aureus)
chain: MGSQHITPVSEKKVDDKITLYKTTATSDSDKLKISQILTFNFIKDKSYDKDTLILKAAGNIYSGYTKPNPKDTISSQFYWGSKYNISINSDSNDSVNVVDYAPKNQNEEFQVQQTVGYSYGGDINISNGLSGDGNGSKSFSETINYKQESYRTSLDKRTNFKKIGWDVEAHKIMNNGWGPYGRDSYHSTYGNEMFLGSRQSNLNAGQNFLEYHKMPVLSRGNFNPEFIGVLSRKQNAAKKSKITVTYQREMDRYTNFWNQLHWIGNNYKDENRATHTSIYEVDWENHTVKLIDTQSKEKNPMSAAA
notes: cloning residues before LukF; LukF-PV, S. aureus; they already carry the D (LSGDGNG); residues from the NotI site between LukF and the C-terminal His6; also called F(G130D); LukF mutant G130D LukF; source: E. coli Rosetta-gami 2 (DE3) pLysS, purified (nickel HisTrap, Superdex 75)
Regarding B1, the binding result in assay [4] was “binds”.
